Measurements published in patent US20180023049A1, “SYNTHETIC PEPTIDE HYDROGEL FORMULATIONS FOR USE AS EXTRACELLULAR MATRIX” (3-D MATRIX, LTD., priority 2015, published 2018).

Key:
[1] = pH, pKa and isoelectronic point of PuraMatrix; assay type: physicochemical; settings: aqueous 1% PuraMatrix solution, in this study
Source text: Isoelectronic point (pI) is the pH at which a particular molecule carries no net electrical charge. PuraMarix® has four arginine and four aspartic acid. […] That means that there is no net electrical charge between around pH 3.9 and around pH 11.5, where the solubility of PuraMatrix® becomes low. Usually, aqueous PuraMatrix® solution has its pH level at 2.0-2.5. […] Although isotonic PuraMatrix® formulated in 10% sucrose solution has been used for cell culture experiments as shown in the current PuraMatrix® cell culture protocol, the pH of PuraMatrix® with 10% sucrose was also 2.2.

[2] = cited from earlier work

Sequence: RADARADARADARADA [PuraMatrix®]
- pH [1]: 2.2
- pH level ([2]; aqueous PuraMatrix solution, usually): 2.0-2.5
- solubility ([2]; between around pH 3.9 and around pH 11.5): low
- pKa of aspartic acid in PuraMatrix [2]: 3.9
